How the values were obtained:
GDF8, O14793 [1] = test: SPR (Biacore); receptor-Fc captured by anti-Fc antibody, ligand injected; conditions: remark: other sources report otherwise
GDF8, O14793 [2] = test: SPR (Biacore); receptor-Fc captured by anti-Fc antibody, ligand injected; † Very low signal; conditions: remark: other sources report otherwise

Chain of GDF8, O14793 (O14793 267-375 limits assumed): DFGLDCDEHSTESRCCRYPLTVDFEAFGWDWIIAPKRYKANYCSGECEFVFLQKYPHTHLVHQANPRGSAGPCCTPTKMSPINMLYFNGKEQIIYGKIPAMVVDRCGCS

koff (GDF8, O14793 [1]): 0.0019 s⁻¹ | kon (GDF8, O14793 [1]): 130000 M⁻¹ s⁻¹ | Kd (GDF8, O14793 [2]): 15 nM
B1: ALK4-Fc homodimer, P36896 24-126 (Fc fusion, not shown: a dimerising Fc or GST)
chain: SGPRGVQALLCACTSCLQANYTCETDGACMVSIFNLDGMEHHVRTCIPKVELVPAGKPFYCLSSEDLRNTHCCYTDYCNRIDLRVPSGHLKEPEHPSMWGPVE
